Test results as given in US20090291083A1, “BARB4 TARGET, ANTIBODY DESIGNATED BARB4, BARB4 RELATED ANTIBODIES, AND METHODS OF MAKING AND USING SAME” (PATRYS LIMITED, priority 2008, published 2009).

Assays:
[1] = test system: lung carcinoma cells (A549); experiment: FACS analysis of tumor cell binding; set-up: species or system human; details: 20 min on ice
Experimental: (§1) To analyze tumor cell binding, pancreas cancer cells (BXPC-3), stomach cancer cells (23132/87), lung carcinoma cells (A549) and malignant melanoma cells (HTB-69 and CRL-1424) were grown to subconfluency in complete medium, detached with Trypsin/EDTA and incubated on ice for 1 h for recreation. Tumor cells were subsequently incubated on ice with BARB4 antibody (diluted in PBS containing 0.01% sodium azide), or human isotype-matched control antibody (Chrompure human IgG, Dianova, Hamburg, Germany) for 20 min on ice. Following incubation, cells were incubated with a FITC-labeled rabbit anti-human IgG antibody (1:50, Dako, Germany) for 20 min on ice, and cells were analyzed by flow cytometry (FACScan; Becton Dickinson, USA).

[2] = test system: pancreas cancer cells (BXPC-3); experiment: FACS analysis of tumor cell binding; set-up: species or system human; details: 20 min on ice
Experimental: as §1

[3] = test system: human pancreas carcinoma cell-line BXPC-3; experiment: Immunofluorescence, endocytosis of conjugated BARB4; format: cell-based; details: 40 μg/ml conjugated antibody, 37° C., 30 minutes after binding
Experimental: Endocytosis was determined for BARB4 on human pancreas carcinoma cell-line BXPC-3. BARB4 antibody (purified) was conjugated with Fluorescent orange 548 reactive (Fluka, Buchs, Switzerland). Conjugated BARB4 antibody at a final concentration of 40 μg/ml was directly given to 1×10^6 cells and incubated for indicated times at 37° C. Cells were harvested, rinsed and resuspended in phosphate buffer saline pH 7,4 (PBS). 100 μl of each cell suspension was fixed on slides. Finally the slides were mounted with Fluorescent Mounting Medium (DakoCytomation, Carpinteria, USA) and analyzed by confocal microscopy. The data is illustrated in FIG. 4.

[4] = test system: human pancreas carcinoma cells (BXPC-3); experiment: Glycosidase assay on cytospins, immunohistochemical staining; format: binding; details: BXPC-3 cytospins, biotinylated BARB4 100 μg/ml
Experimental: To determine whether O- or N-linked sugar residues are potentially involved in BARB4 binding to tumor cells, cytospin preparations of BXPC-3 cancer cells were incubated with N- or O-glycosidase. In brief, 4×10^5 human pancreas carcinoma cells (BXPC-3) were resuspended in 1 ml Dulbecco's phosphate buffered saline pH 7.2 (Sigma, Taufkirchen, Germany) and incubated with 10 U/ml N-glycosidase or 40 mU/ml O-glycosidase (both Roche Applied Science, Mannheim, Germany) for 2 hours at 37° C. Untreated cells in Dulbecco's phosphate buffered saline served as control. Cytospins were prepared and immunohistochemical staining with biotinylated BARB4 antibody (100 μg/ml) was performed.
After treatment of the cells, binding of BARB4 was evaluated by immunohistochemical staining (FIG. 5). […] BARB4 could therefore bind to an eptiope that includes or consists of a carbohydrate moiety that is removed or modified by O-glycosidase treatment.

[5] = test system: BXPC-3 cells transfected with TAF 15 siRNA; experiment: FACS analysis after TAF 15 siRNA knockdown; format: binding, human; details: BARB4 300 μg/ml
Experimental: Before transfection, 24-well plates were inoculated with 0.5×10^4 BXPC-3 cells in growth medium (RPMI 1640 supplemented with […] and 1% (V/V) glutamine). The cells were incubated at 37° C. and a 7% CO2 atmosphere over night to reach a confluence of 50 to 70% the following day. 60 minutes prior to transfection, the medium was carefully aspirated from the wells and 250 μl (300 μl for nontransfected cells) fresh growth medium was added. For each well 50 μl transfection solution was prepared. First […] serum-free OptiMEM® I+GlutaMAX™-I (1×) medium (Invitrogen, Karlsruhe) supplemented with 0.5 μl siLentFect™Lipid Reagent (Biorad, München) was mixed. Afterwards 25 μl serum-free medium containing siGENOME SMARTpool siRNA (Dharmacon, Lafayette, USA) was prepared to achieve a final concentration of 100 nM siRNA. Both solutions were prepared separately. After five minutes they were added together and mixed by pipetting. […]
FACS assays were done with transfected cells. […] At least 200 μl FACS buffer was added and cells were analyzed by flow cytometry (FACScan; Becton Dickinson, San Jose, Calif.) using WinMDI software. […]
Mouse anti-human CD55 antibody (DAF; 1:1000; Acris, Hiddenhausen) was used to control protein expression of other cell surface membrane proteins. […] The cells were analyzed by flow cytometry (FACScan, Becton Dickinson, San Jose) and evaluated with WinMDI software.

B1: BARB4: human IgG antibody produced by hybridoma DSMZ Deposit No. DSM ACC2876; heavy chain SEQ ID NOs:1, 3, 5, 7, light chain SEQ ID NO:9 (antibody, V domains shown)
VH: QVQLVESGGGVVQPGRSLRLSCAASGFRFTTHGMHWVRQAPGKGLEWVAVISYNGRNKYYADYVNGRFTISRDDSRDTVFLQMNSLRPEDTAMYYCAKVRGDGYGDYGYFDYWGHGTLVSVSS
VL: QSALTQPRSVSGSPGQSVTISCTGTYNYVSWYQQHPGKAPKLMIFDVSRRSSGVPDRFSGSKSGNTASLTISGLQAEDEADYYCCSYGGTYLYVFGTGTTVTVLGQ
[1]
  tumor cell binding (FACS): binds
[2]
  tumor cell binding (FACS): binds
[3]
  endocytosis of antibody by cells (immunofluorescence): endocytosis
[4]; 10 U/ml N-glycosidase 2 hours 37° C.
  surface binding on cells treated with N-glycosidase: clear reduction of surface binding
[4]; 40 mU/ml O-glycosidase 2 hours 37° C.
  binding on cells treated with O-glycosidase: no effect
[5]; 48 h after transfection
  FACS binding to cells treated with siRNA against human TAF15 mRNA: clearly reduced binding
[5]; after 48 h
  FACS binding to untreated cells and cells treated with unrelated siRNA (negative control): binds
